Data as given in patent US20260001928A1 (CORTERIA PHARMACEUTICALS, priority 2022, published 2026).
*1 amine or outer side, *2 acyl side, *3 side chain or, on linkers, in order; H or OH if unused. Side-chain parts run from the residue outwards. [ ]: non-standard residue; d: D form. The star is where a group is joined. C16 diacid = O=C(O)CCCCCCCCCCCCCCC(=O)*; γGlu = O=C(O)[C@H](CCC(=O)[*:2])N[*:1]; C12 diacid = O=C(O)CCCCCCCCCCC(=O)*; Api = NC1(C(=O)O)CCNCC1; Aib = CC(C)(N)C(=O)O; Propionyl = CCC(=O)*

T1: CRF1R receptor (UniProt P34998 24-415, limits assumed)
T1 sequence (looked up): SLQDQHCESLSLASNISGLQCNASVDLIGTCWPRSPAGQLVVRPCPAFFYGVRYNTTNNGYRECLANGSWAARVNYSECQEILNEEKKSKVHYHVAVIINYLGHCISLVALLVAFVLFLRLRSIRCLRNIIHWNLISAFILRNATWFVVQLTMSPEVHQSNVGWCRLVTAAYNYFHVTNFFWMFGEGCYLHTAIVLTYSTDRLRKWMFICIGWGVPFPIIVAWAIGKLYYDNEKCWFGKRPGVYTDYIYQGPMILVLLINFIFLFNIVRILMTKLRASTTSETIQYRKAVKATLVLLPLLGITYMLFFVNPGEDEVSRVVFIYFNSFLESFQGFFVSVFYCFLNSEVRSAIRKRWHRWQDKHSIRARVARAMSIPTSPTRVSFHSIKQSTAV


What was measured:
[1] = target: T1, CRF1R receptor; experiment: cell-based or functional assay
[2] = target: human corticotropin-releasing factor 2a (CRF2a receptor) (human), Q13324; experiment: cell-based or functional assay
human corticotropin-releasing factor 2a (CRF2a receptor) (human), Q13324, sequence (Q13324 20-411): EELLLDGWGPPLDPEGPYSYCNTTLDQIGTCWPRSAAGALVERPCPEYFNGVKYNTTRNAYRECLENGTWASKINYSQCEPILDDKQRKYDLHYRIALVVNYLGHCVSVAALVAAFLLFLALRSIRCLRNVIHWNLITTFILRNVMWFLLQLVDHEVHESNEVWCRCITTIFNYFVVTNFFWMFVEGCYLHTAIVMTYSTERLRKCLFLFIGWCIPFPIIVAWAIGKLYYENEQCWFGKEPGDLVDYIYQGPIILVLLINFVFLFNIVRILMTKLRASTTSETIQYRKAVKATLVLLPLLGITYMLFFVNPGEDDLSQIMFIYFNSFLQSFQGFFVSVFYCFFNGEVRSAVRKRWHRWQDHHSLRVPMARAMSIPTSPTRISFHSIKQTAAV

Emax (% I) [1]	EC50 [nM] (cAMP) [2]	EC50 [1]	Binder
11%	2.47 nM	–	Ac-IVLSLD[dV]PIKLK([γGlu-C12 diacid])KILLEQEKQKKQREQAETN[Api]QILAQV-NH2 (SMILES CC[C@H](C)[C@H](NC(C)=O)C(=O)N[C@H](C(=O)N[C@@H](CC(C)C)C(=O)N[C@@H](CO)C(=O)N[C@@H](CC(C)C)C(=O)N[C@@H](CC(=O)O)C(=O)N[C@@H](C(=O)N1CCC[C@H]1C(=O)N[C@H](C(=O)N[C@@H](CCCCN)C(=O)N[C@@H](CC(C)C)C(=O)N[C@@H](CCCCNC(=O)CC[C@H](NC(=O)CCCCCCCCCCC(=O)O)C(=O)O)C(=O)N[C@@H](CCCCN)C(=O)N[C@H](C(=O)N[C@@H](CC(C)C)C(=O)N[C@@H](CC(C)C)C(=O)N[C@@H](CCC(=O)O)C(=O)N[C@@H](CCC(N)=O)C(=O)N[C@@H](CCC(=O)O)C(=O)N[C@@H](CCCCN)C(=O)N[C@@H](CCC(N)=O)C(=O)N[C@@H](CCCCN)C(=O)N[C@@H](CCCCN)C(=O)N[C@@H](CCC(N)=O)C(=O)N[C@@H](CCCNC(=N)N)C(=O)N[C@@H](CCC(=O)O)C(=O)N[C@@H](CCC(N)=O)C(=O)N[C@@H](C)C(=O)N[C@@H](CCC(=O)O)C(=O)N[C@H](C(=O)N[C@@H](CC(N)=O)C(=O)NC1(C(=O)N[C@@H](CCC(N)=O)C(=O)N[C@H](C(=O)N[C@@H](CC(C)C)C(=O)N[C@@H](C)C(=O)N[C@@H](CCC(N)=O)C(=O)N[C@H](C(N)=O)C(C)C)[C@@H](C)CC)CCNCC1)[C@@H](C)O)[C@@H](C)CC)[C@@H](C)CC)C(C)C)C(C)C) [SEQ ID NO 183]
56%	0.09 nM	166 nM	Propionyl-VLSLD[dV]PIKLK([γGlu-C16 diacid])QILLKQERQKKQREQAEKNKQILEQV-NH2 (SMILES CCC(=O)N[C@H](C(=O)N[C@@H](CC(C)C)C(=O)N[C@@H](CO)C(=O)N[C@@H](CC(C)C)C(=O)N[C@@H](CC(=O)O)C(=O)N[C@@H](C(=O)N1CCC[C@H]1C(=O)N[C@H](C(=O)N[C@@H](CCCCN)C(=O)N[C@@H](CC(C)C)C(=O)N[C@@H](CCCCNC(=O)CC[C@H](NC(=O)CCCCCCCCCCCCCCC(=O)O)C(=O)O)C(=O)N[C@@H](CCC(N)=O)C(=O)N[C@H](C(=O)N[C@@H](CC(C)C)C(=O)N[C@@H](CC(C)C)C(=O)N[C@@H](CCCCN)C(=O)N[C@@H](CCC(N)=O)C(=O)N[C@@H](CCC(=O)O)C(=O)N[C@@H](CCCNC(=N)N)C(=O)N[C@@H](CCC(N)=O)C(=O)N[C@@H](CCCCN)C(=O)N[C@@H](CCCCN)C(=O)N[C@@H](CCC(N)=O)C(=O)N[C@@H](CCCNC(=N)N)C(=O)N[C@@H](CCC(=O)O)C(=O)N[C@@H](CCC(N)=O)C(=O)N[C@@H](C)C(=O)N[C@@H](CCC(=O)O)C(=O)N[C@@H](CCCCN)C(=O)N[C@@H](CC(N)=O)C(=O)N[C@@H](CCCCN)C(=O)N[C@@H](CCC(N)=O)C(=O)N[C@H](C(=O)N[C@@H](CC(C)C)C(=O)N[C@@H](CCC(=O)O)C(=O)N[C@@H](CCC(N)=O)C(=O)N[C@H](C(N)=O)C(C)C)[C@@H](C)CC)[C@@H](C)CC)[C@@H](C)CC)C(C)C)C(C)C) [SEQ ID NO 6]
3%	4.25 nM	–	Ac-IVLSLD[dV]PIKLK([γGlu-C12 diacid])KILLEQEKQK[Aib]QREQAETN[Api]QILAQV-NH2 (SMILES CC[C@H](C)[C@H](NC(C)=O)C(=O)N[C@H](C(=O)N[C@@H](CC(C)C)C(=O)N[C@@H](CO)C(=O)N[C@@H](CC(C)C)C(=O)N[C@@H](CC(=O)O)C(=O)N[C@@H](C(=O)N1CCC[C@H]1C(=O)N[C@H](C(=O)N[C@@H](CCCCN)C(=O)N[C@@H](CC(C)C)C(=O)N[C@@H](CCCCNC(=O)CC[C@H](NC(=O)CCCCCCCCCCC(=O)O)C(=O)O)C(=O)N[C@@H](CCCCN)C(=O)N[C@H](C(=O)N[C@@H](CC(C)C)C(=O)N[C@@H](CC(C)C)C(=O)N[C@@H](CCC(=O)O)C(=O)N[C@@H](CCC(N)=O)C(=O)N[C@@H](CCC(=O)O)C(=O)N[C@@H](CCCCN)C(=O)N[C@@H](CCC(N)=O)C(=O)N[C@@H](CCCCN)C(=O)NC(C)(C)C(=O)N[C@@H](CCC(N)=O)C(=O)N[C@@H](CCCNC(=N)N)C(=O)N[C@@H](CCC(=O)O)C(=O)N[C@@H](CCC(N)=O)C(=O)N[C@@H](C)C(=O)N[C@@H](CCC(=O)O)C(=O)N[C@H](C(=O)N[C@@H](CC(N)=O)C(=O)NC1(C(=O)N[C@@H](CCC(N)=O)C(=O)N[C@H](C(=O)N[C@@H](CC(C)C)C(=O)N[C@@H](C)C(=O)N[C@@H](CCC(N)=O)C(=O)N[C@H](C(N)=O)C(C)C)[C@@H](C)CC)CCNCC1)[C@@H](C)O)[C@@H](C)CC)[C@@H](C)CC)C(C)C)C(C)C) [SEQ ID NO 184]
1%	1.88 nM	–	Ac-IVLSLD[dV]PIKLK([γGlu-C12 diacid])KILLEQEKQKKQREQAETN[Aib]QILAQV-NH2 (SMILES CC[C@H](C)[C@H](NC(C)=O)C(=O)N[C@H](C(=O)N[C@@H](CC(C)C)C(=O)N[C@@H](CO)C(=O)N[C@@H](CC(C)C)C(=O)N[C@@H](CC(=O)O)C(=O)N[C@@H](C(=O)N1CCC[C@H]1C(=O)N[C@H](C(=O)N[C@@H](CCCCN)C(=O)N[C@@H](CC(C)C)C(=O)N[C@@H](CCCCNC(=O)CC[C@H](NC(=O)CCCCCCCCCCC(=O)O)C(=O)O)C(=O)N[C@@H](CCCCN)C(=O)N[C@H](C(=O)N[C@@H](CC(C)C)C(=O)N[C@@H](CC(C)C)C(=O)N[C@@H](CCC(=O)O)C(=O)N[C@@H](CCC(N)=O)C(=O)N[C@@H](CCC(=O)O)C(=O)N[C@@H](CCCCN)C(=O)N[C@@H](CCC(N)=O)C(=O)N[C@@H](CCCCN)C(=O)N[C@@H](CCCCN)C(=O)N[C@@H](CCC(N)=O)C(=O)N[C@@H](CCCNC(=N)N)C(=O)N[C@@H](CCC(=O)O)C(=O)N[C@@H](CCC(N)=O)C(=O)N[C@@H](C)C(=O)N[C@@H](CCC(=O)O)C(=O)N[C@H](C(=O)N[C@@H](CC(N)=O)C(=O)NC(C)(C)C(=O)N[C@@H](CCC(N)=O)C(=O)N[C@H](C(=O)N[C@@H](CC(C)C)C(=O)N[C@@H](C)C(=O)N[C@@H](CCC(N)=O)C(=O)N[C@H](C(N)=O)C(C)C)[C@@H](C)CC)[C@@H](C)O)[C@@H](C)CC)[C@@H](C)CC)C(C)C)C(C)C) [SEQ ID NO 182]
